Measured values reported in the array DNA melting data of Ke et al..

Test: melting temperature; melt of duplexes
Settings: sodium 0.0675 M; strand 1 µM
“CGACGTGCGATATGTGCTG+CAGCACATGGTGCACGTCG ((((((((...((((((((+))))))))...))))))))” gave a Tm of 49.2 °C. In the case of “CGACGTGCTAGATGTGCTG+CAGCACATACGGCACGTCG ((((((((...((((((((+))))))))...))))))))”, the Tm is reported as 49.9 °C. For “CGACGTGCCATATGTGCTG+CAGCACATTGGGCACGTCG (((((((((..((((((((+))))))))..)))))))))”, the Tm was 55.6 °C. “CGACGTGCTACATGTGCTG+CAGCACATGAGGCACGTCG ((((((((..(((((((((+)))))))))..))))))))” showed a Tm of 55.8 °C. Work on “CGACGTGCGCAATGTGCTG+CAGCACATTGCGCACGTCG (((((((((((((((((((+)))))))))))))))))))” yielded a Tm of 67.1 °C. “CGACGTGCTACATGTGCTG+CAGCACATTCCGCACGTCG ((((((((...((((((((+))))))))...))))))))” showed a Tm of 47.2 °C. Substance “CGACGTGCAGAATGTGCTG+CAGCACATTCTGCACGTCG (((((((((((((((((((+)))))))))))))))))))” has a Tm of 64.2 °C. In the case of “CGACGTGCCGTATGTGCTG+CAGCACATTAGGCACGTCG (((((((((..((((((((+))))))))..)))))))))”, the Tm is reported as 57.1 °C. For “CGACGTGCTTGATGTGCTG+CAGCACATGAGGCACGTCG ((((((((.(.((((((((+)))))))).).))))))))”, the Tm was 51.6 °C. “CGACGTGCCGAATGTGCTG+CAGCACATCAAGCACGTCG ((((((((...((((((((+))))))))...))))))))” showed a Tm of 49.6 °C. In the case of “CGACGTGCCTAATGTGCTG+CAGCACATCCAGCACGTCG ((((((((...((((((((+))))))))...))))))))”, the Tm is reported as 48.7 °C. In the case of “CGACGTGCTCCATGTGCTG+CAGCACATTAGGCACGTCG ((((((((...((((((((+))))))))...))))))))”, the Tm is reported as 48.4 °C. Substance “CGACGTGCGAGATGTGCTG+CAGCACATGTCGCACGTCG ((((((((((.((((((((+)))))))).))))))))))” has a Tm of 60.6 °C. Work on “CGACGTGCGACATGTGCTG+CAGCACATCGTGCACGTCG ((((((((...((((((((+))))))))...))))))))” yielded a Tm of 47.6 °C. “CGACGTGCTCCATGTGCTG+CAGCACATGGAGCACGTCG (((((((((((((((((((+)))))))))))))))))))” gave a Tm of 66.1 °C. In the case of “CGACGTGCGCTATGTGCTG+CAGCACATACAGCACGTCG ((((((((..(((((((((+)))))))))..))))))))”, the Tm is reported as 52.1 °C. In the case of “CGACGTGCTATATGTGCTG+CAGCACATGACGCACGTCG ((((((((...((((((((+))))))))...))))))))”, the Tm is reported as 47.6 °C. With “CGACGTGCCGAATGTGCTG+CAGCACATACTGCACGTCG ((((((((.(.((((((((+)))))))).).))))))))” the Tm was 50.2 °C. In the case of “CGACGTGCACGATGTGCTG+CAGCACATGTTGCACGTCG (((((((((..((((((((+))))))))..)))))))))”, the Tm is reported as 49.9 °C. With “CGACGTGCGATATGTGCTG+CAGCACATTCAGCACGTCG ((((((((...((((((((+))))))))...))))))))” the Tm was 52.8 °C. For “CGACGTGCCAGATGTGCTG+CAGCACATCGGGCACGTCG (((((((((.(((((((((+))))))))).)))))))))”, the Tm was 62.2 °C. For “CGACGTGCAGTATGTGCTG+CAGCACATGTGGCACGTCG ((((((((...((((((((+))))))))...))))))))”, the Tm was 50.4 °C. In the case of “CGACGTGCGGCATGTGCTG+CAGCACATGATGCACGTCG ((((((((..(((((((((+)))))))))..))))))))”, the Tm is reported as 58.7 °C. In the case of “CGACGTGCACAATGTGCTG+CAGCACATACGGCACGTCG ((((((((...((((((((+))))))))...))))))))”, the Tm is reported as 44.7 °C. In the case of “CGACGTGCCGTATGTGCTG+CAGCACATACGGCACGTCG (((((((((((((((((((+)))))))))))))))))))”, the Tm is reported as 66.2 °C. “CGACGTGCCGGATGTGCTG+CAGCACATGCTGCACGTCG ((((((((.(.((((((((+)))))))).).))))))))” showed a Tm of 51.3 °C. Work on “CGACGTGCGCAATGTGCTG+CAGCACATCCAGCACGTCG ((((((((...((((((((+))))))))...))))))))” yielded a Tm of 51.1 °C. For “CGACGTGCATGATGTGCTG+CAGCACATGTCGCACGTCG ((((((((...((((((((+))))))))...))))))))”, the Tm was 48.8 °C. Work on “CGACGTGCGCCATGTGCTG+CAGCACATTCTGCACGTCG ((((((((...((((((((+))))))))...))))))))” yielded a Tm of 47.8 °C. Substance “CGACGTGCTGCATGTGCTG+CAGCACATGAGGCACGTCG ((((((((..(((((((((+)))))))))..))))))))” has a Tm of 56.8 °C. “CGACGTGCTATATGTGCTG+CAGCACATTGTGCACGTCG ((((((((...((((((((+))))))))...))))))))” showed a Tm of 47.2 °C. In the case of “CGACGTGCGTAATGTGCTG+CAGCACATTGAGCACGTCG ((((((((..(((((((((+)))))))))..))))))))”, the Tm is reported as 56.6 °C. Work on “CGACGTGCATTATGTGCTG+CAGCACATTCAGCACGTCG ((((((((...((((((((+))))))))...))))))))” yielded a Tm of 48.7 °C. Substance “CGACGTGCCATATGTGCTG+CAGCACATCTGGCACGTCG ((((((((((.((((((((+)))))))).))))))))))” has a Tm of 57.1 °C. “CGACGTGCTAGATGTGCTG+CAGCACATAGGGCACGTCG ((((((((...((((((((+))))))))...))))))))” gave a Tm of 51.5 °C. “CGACGTGCGTGATGTGCTG+CAGCACATTAGGCACGTCG ((((((((.(.((((((((+)))))))).).))))))))” gave a Tm of 54.1 °C. “CGACGTGCCCTATGTGCTG+CAGCACATGGCGCACGTCG ((((((((.(.((((((((+)))))))).).))))))))” showed a Tm of 52.9 °C. With “CGACGTGCTAAATGTGCTG+CAGCACATCTTGCACGTCG ((((((((.(.((((((((+)))))))).).))))))))” the Tm was 50.1 °C. Substance “CGACGTGCCAAATGTGCTG+CAGCACATCACGCACGTCG ((((((((...((((((((+))))))))...))))))))” has a Tm of 47.3 °C. In the case of “CGACGTGCAGCATGTGCTG+CAGCACATGACGCACGTCG ((((((((..(((((((((+)))))))))..))))))))”, the Tm is reported as 52 °C. With “CGACGTGCTAAATGTGCTG+CAGCACATGAGGCACGTCG ((((((((...((((((((+))))))))...))))))))” the Tm was 53.4 °C. “CGACGTGCGAAATGTGCTG+CAGCACATATTGCACGTCG ((((((((.(.((((((((+)))))))).).))))))))” showed a Tm of 51.9 °C. In the case of “CGACGTGCCGCATGTGCTG+CAGCACATTTGGCACGTCG (((((((((..((((((((+))))))))..)))))))))”, the Tm is reported as 53.9 °C. “CGACGTGCAGTATGTGCTG+CAGCACATAAGGCACGTCG ((((((((..(((((((((+)))))))))..))))))))” showed a Tm of 52.1 °C. Substance “CGACGTGCCATATGTGCTG+CAGCACATCCTGCACGTCG ((((((((...((((((((+))))))))...))))))))” has a Tm of 47.7 °C. “CGACGTGCCTAATGTGCTG+CAGCACATATCGCACGTCG ((((((((...((((((((+))))))))...))))))))” gave a Tm of 47 °C. Work on “CGACGTGCGTAATGTGCTG+CAGCACATTTTGCACGTCG ((((((((..(((((((((+)))))))))..))))))))” yielded a Tm of 54.4 °C. With “CGACGTGCCCCATGTGCTG+CAGCACATCAGGCACGTCG (((((((((..((((((((+))))))))..)))))))))” the Tm was 52.5 °C. “CGACGTGCGGAATGTGCTG+CAGCACATGCTGCACGTCG ((((((((.(.((((((((+)))))))).).))))))))” showed a Tm of 54.7 °C. “CGACGTGCCGCATGTGCTG+CAGCACATGTAGCACGTCG ((((((((..(((((((((+)))))))))..))))))))” showed a Tm of 54.4 °C. With “CGACGTGCGTGATGTGCTG+CAGCACATGTTGCACGTCG ((((((((...((((((((+))))))))...))))))))” the Tm was 50 °C. Substance “CGACGTGCTTCATGTGCTG+CAGCACATTATGCACGTCG ((((((((.(.((((((((+)))))))).).))))))))” has a Tm of 50.1 °C. “CGACGTGCTATATGTGCTG+CAGCACATTGGGCACGTCG ((((((((...((((((((+))))))))...))))))))” gave a Tm of 50.5 °C. With “CGACGTGCAGCATGTGCTG+CAGCACATTCTGCACGTCG ((((((((((.((((((((+)))))))).))))))))))” the Tm was 55 °C. With “CGACGTGCAGGATGTGCTG+CAGCACATTAAGCACGTCG ((((((((...((((((((+))))))))...))))))))” the Tm was 50.7 °C. With “CGACGTGCTTGATGTGCTG+CAGCACATCAAGCACGTCG (((((((((((((((((((+)))))))))))))))))))” the Tm was 64.9 °C. Substance “CGACGTGCTGTATGTGCTG+CAGCACATGCTGCACGTCG ((((((((.(.((((((((+)))))))).).))))))))” has a Tm of 54.1 °C. Substance “CGACGTGCGCTATGTGCTG+CAGCACATGGTGCACGTCG ((((((((.(.((((((((+)))))))).).))))))))” has a Tm of 54.6 °C. With “CGACGTGCAGAATGTGCTG+CAGCACATTTAGCACGTCG ((((((((..(((((((((+)))))))))..))))))))” the Tm was 53.3 °C. In the case of “CGACGTGCAAGATGTGCTG+CAGCACATCGAGCACGTCG ((((((((..(((((((((+)))))))))..))))))))”, the Tm is reported as 57.9 °C. With “CGACGTGCCGGATGTGCTG+CAGCACATTTCGCACGTCG ((((((((...((((((((+))))))))...))))))))” the Tm was 49.1 °C. “CGACGTGCCGAATGTGCTG+CAGCACATTCAGCACGTCG ((((((((.((((((((((+)))))))))).))))))))” gave a Tm of 57 °C. “CGACGTGCATTATGTGCTG+CAGCACATAAGGCACGTCG ((((((((.((((((((((+)))))))))).))))))))” gave a Tm of 56.7 °C. “CGACGTGCGCAATGTGCTG+CAGCACATACAGCACGTCG ((((((((...((((((((+))))))))...))))))))” gave a Tm of 51.4 °C. “CGACGTGCTGCATGTGCTG+CAGCACATTACGCACGTCG ((((((((...((((((((+))))))))...))))))))” gave a Tm of 48.2 °C. With “CGACGTGCCGTATGTGCTG+CAGCACATGGCGCACGTCG ((((((((...((((((((+))))))))...))))))))” the Tm was 50.3 °C. For “CGACGTGCCCAATGTGCTG+CAGCACATGCGGCACGTCG (((((((((..((((((((+))))))))..)))))))))”, the Tm was 54.3 °C. For “CGACGTGCTGCATGTGCTG+CAGCACATTGCGCACGTCG ((((((((...((((((((+))))))))...))))))))”, the Tm was 53.5 °C. “CGACGTGCTGAATGTGCTG+CAGCACATTCGGCACGTCG ((((((((.((((((((((+)))))))))).))))))))” gave a Tm of 60.6 °C. “CGACGTGCAATATGTGCTG+CAGCACATTTCGCACGTCG ((((((((.(.((((((((+)))))))).).))))))))” showed a Tm of 50.1 °C. Substance “CGACGTGCTCAATGTGCTG+CAGCACATACTGCACGTCG ((((((((...((((((((+))))))))...))))))))” has a Tm of 48.7 °C. “CGACGTGCGTGATGTGCTG+CAGCACATCCGGCACGTCG ((((((((..(((((((((+)))))))))..))))))))” gave a Tm of 55.7 °C.
